Reference: publication PMC12141716, “An archaeal nucleoid-associated protein binds an essential motif in DNA replication origins” (Nature Communications, 2025)
Blank lines part the entries; values can stand above or below the binder they belong to.

How the values were obtained:
[1] = molecular target: T1, UBP (Sulfolobus islandicus REY15A, UniProt F0NFD3 1-111); assay: EMSA; 0-740 nM UBP; EMSA: 50 mM K-acetate, 20 mM Tris-acetate, 10 mM Mg-acetate, 1 mM DTT, pH 7.9, 5-10% glycerol, 70 mM NaCl, 800 ng salmon sperm DNA per 10 ul, room temperature 10 min; footprinting same buffer, 4% glycerol, 8000 ng salmon sperm DNA; pull-down 25 mM HEPES pH 7.5, 150 mM NaCl, 10 mM MgCl, 100 uM ZnCl, 10 mM DTT, 48 C; settings: protein: recombinant; tags: MBP tag removed by Factor Xa; 3 extra vector residues at N-terminus; chain copies: 2; label: 5'-32P; blunt
T1 sequence: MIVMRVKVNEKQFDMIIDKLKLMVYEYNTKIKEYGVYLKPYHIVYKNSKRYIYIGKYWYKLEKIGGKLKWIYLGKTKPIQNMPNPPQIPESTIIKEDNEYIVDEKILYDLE

[2] = molecular target: T1, UBP; assay: EMSA; EMSA: 50 mM K-acetate, 20 mM Tris-acetate, 10 mM Mg-acetate, 1 mM DTT, pH 7.9, 5-10% glycerol, 70 mM NaCl, 800 ng salmon sperm DNA per 10 ul, room temperature 10 min; footprinting same buffer, 4% glycerol, 8000 ng salmon sperm DNA; pull-down 25 mM HEPES pH 7.5, 150 mM NaCl, 10 mM MgCl, 100 uM ZnCl, 10 mM DTT, 48 C; settings: protein: recombinant; tags: MBP tag removed by Factor Xa; 3 extra vector residues at N-terminus; chain copies: 2; label: 5'-32P; blunt
[3] = molecular target: T2, UBP (DNA co-crystal) (Sulfolobus islandicus REY15A, UniProt F0NFD3 1-111); assay: X-ray crystallography; 1.8 A; EMSA: 50 mM K-acetate, 20 mM Tris-acetate, 10 mM Mg-acetate, 1 mM DTT, pH 7.9, 5-10% glycerol, 70 mM NaCl, 800 ng salmon sperm DNA per 10 ul, room temperature 10 min; footprinting same buffer, 4% glycerol, 8000 ng salmon sperm DNA; pull-down 25 mM HEPES pH 7.5, 150 mM NaCl, 10 mM MgCl, 100 uM ZnCl, 10 mM DTT, 48 C; settings: protein: recombinant; tags: MBP tag removed by Factor Xa; 3 extra vector residues at N-terminus; blunt
T2 sequence: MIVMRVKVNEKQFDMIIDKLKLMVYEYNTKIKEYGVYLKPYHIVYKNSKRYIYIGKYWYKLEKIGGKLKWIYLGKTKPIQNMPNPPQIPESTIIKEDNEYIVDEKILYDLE

[4] = molecular target: T3, MCM replicative helicase, full-length recombinant (Sulfolobus islandicus REY15A, UniProt F0NF15 1-686); assay: MCM recruitment (in vitro loading) assay on bead-bound origin DNA; 200 pM DNA on magnetic beads, UBP and/or Orc1-1 E147A 1 µM, 2 mM ATP, 50 °C, MCM 12.9 nM; washes with binding buffer and with 500 mM potassium acetate; western blot; settings: both partners purified
T3 construct: MCM replicative helicase, Sulfolobus islandicus REY15A, SiRe_1228; The introduction and discussion call archaeal MCM a homohexamer (cited work); also called full-length MCM; recombinant MCM
T3 sequence (looked up): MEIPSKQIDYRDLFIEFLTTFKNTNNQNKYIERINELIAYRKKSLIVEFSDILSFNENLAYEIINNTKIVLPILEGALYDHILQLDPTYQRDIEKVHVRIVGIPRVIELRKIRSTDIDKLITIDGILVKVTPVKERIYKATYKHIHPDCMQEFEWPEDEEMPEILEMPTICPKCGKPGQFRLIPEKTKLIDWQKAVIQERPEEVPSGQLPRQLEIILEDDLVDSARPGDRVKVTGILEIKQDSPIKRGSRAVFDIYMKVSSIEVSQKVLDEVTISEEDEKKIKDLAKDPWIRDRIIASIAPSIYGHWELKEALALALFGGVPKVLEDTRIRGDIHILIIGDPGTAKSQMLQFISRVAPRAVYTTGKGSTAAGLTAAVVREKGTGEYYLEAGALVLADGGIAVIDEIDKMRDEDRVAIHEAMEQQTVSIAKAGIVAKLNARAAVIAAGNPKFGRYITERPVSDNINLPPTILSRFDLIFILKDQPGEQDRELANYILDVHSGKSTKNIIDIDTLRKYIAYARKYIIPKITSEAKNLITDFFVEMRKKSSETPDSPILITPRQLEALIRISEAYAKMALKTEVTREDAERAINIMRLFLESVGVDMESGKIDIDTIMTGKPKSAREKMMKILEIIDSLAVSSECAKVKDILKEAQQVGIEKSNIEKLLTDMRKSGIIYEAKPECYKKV

[5] = molecular target: T1, UBP; assay: EMSA; up to 740 nM UBP; EMSA: 50 mM K-acetate, 20 mM Tris-acetate, 10 mM Mg-acetate, 1 mM DTT, pH 7.9, 5-10% glycerol, 70 mM NaCl, 800 ng salmon sperm DNA per 10 ul, room temperature 10 min; footprinting same buffer, 4% glycerol, 8000 ng salmon sperm DNA; pull-down 25 mM HEPES pH 7.5, 150 mM NaCl, 10 mM MgCl, 100 uM ZnCl, 10 mM DTT, 48 C; settings: protein: recombinant; tags: MBP tag removed by Factor Xa; 3 extra vector residues at N-terminus; chain copies: 2; label: 5'-32P

B1: ucm 20 bp (P17/P18) (dsDNA)
DNA 1: AACCATTATACAAAAGAATT
DNA 2: AATTCTTTTGTATAATGGTT
- binding result [1]: binds

B2: ucm 50 bp WT (P5/P6) (dsDNA)
DNA 1: TTGTTATAATTAGATAACCATTATACAAAAGAATTGTATAAGAATGAAAT
DNA 2: ATTTCATTCTTATACAATTCTTTTGTATAATGGTTATCTAATTATAACAA
- binding result [2]: binds

B3: 12 bp ucm crystal DNA (P49/P50) (dsDNA)
DNA 1: ATTATACAAAAG
DNA 2: CTTTTGTATAAT
modifications: 5-bromo-dU at positions 2 and 5 of strand 1 and 2 and 9 of strand 2 (written T)
- binding result [3]: binds

- binding result [4]: binds
B4: Orc1-1 E147A (Walker B mutant) (natural protein, Sulfolobus islandicus REY15A, UniProt F0NBP2 1-397, looked up)
chain: MSDIIDEVISSFRTSSIFVNREYLMPDYIPDELPHRENQIRKIASILAPLYREEKPNNIFIYGLTGTGKTAVVKFVLSRFHKKFLGKFKYIYINTRQIDTPYRVLADLLESLDVKVPFTGLSIAELYRRLVKAIREYDSQVVIVLDAIDAFVKRYNDDILYKLSRINSEVNRSKVSFIGITNDVKFVDLLDPRVKSSLSEEEIVFPPYNAEELEDILTKRAQMAFRPGVLPDNVIRLCAALAAREHGDARRALDLLRVAGEIAERLKDSKVKEEYVHLAKEEIERDRVRDIILTLPFHSKLVLTAVASMSSEDNVVLTTGAVYETYLNICKKLGVEPITQRRVSDIINELDMVGILRAKVVNRGRYGKTKEIGLAVDKNIIVKSLIESDSRFADLWG
notes: Orc1-1 replication initiator, Sulfolobus islandicus REY15A, SiRe_1740

Binder: AATTCTTTTGTATAATGGTT (ssDNA) [ucm 20 nt lower strand (P18)]
- binding result [5]: no binding
